Here are results for eleven molecules from patent publication US20040086502A1 (Genentech, published 2004).

Residue numbers refer to the chain shown, from its start. In names and notes the source's numbering stands.

T1: VEGF(8-109) (UniProt P15692 214-315)
T1 construct: range 8-109; Covalently coupled to the BIACORE chip (EDC/NHS); also called vascular endothelial growth factor
T1 sequence (looked up): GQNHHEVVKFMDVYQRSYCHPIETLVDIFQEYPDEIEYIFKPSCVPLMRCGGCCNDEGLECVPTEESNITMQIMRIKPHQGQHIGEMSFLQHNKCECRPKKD

B1: Y0239-19 Fab (Fab, V domains shown)
VH: EVQLVESGGGLVQPGGSLRLSCAASGYTFTNYGMNWVRQAPGKGLEWVGWINTYTGEPTYAADFKRRFTFSLDTSKSTAYLQMNSLRAEDTAVYYCAKYPHYYVNERKSHWYFDVWGQGTL
VL: DIQLTQSPSSLSASVGDRVTITCRANEQLSNYLNWYQQKPGKAPKVLIYFTSSLHSGVPSRFSGSGSGTDFTLTISSLQPEDFATYYCQQYSTVPWTFGQGTKVEIKR
notes: also called insertion variant with the VNERK motif
B2: Y0239-9 Fab (Fab, V domains shown)
VH: EVQLVESGGGLVQPGGSLRLSCAASGYTFTNYGMNWVRQAPGKGLEWVGWINTYTGEPTYAADFKRRFTFSLDTSKSTAYLQMNSLRAEDTAVYYCAKYPHYYLGESSHWYFDVWGQGTL
VL: B1 VL
notes: Only three residues stand in place of G104, although the library was designed with four or five
B3: Y0239-8 Fab (Fab, V domains shown)
VH: EVQLVESGGGLVQPGGSLRLSCAASGYTFTNYGMNWVRQAPGKGLEWVGWINTYTGEPTYAADFKRRFTFSLDTSKSTAYLQMNSLRAEDTAVYYCAKYPHYYLRDGRSSHWYFDVWGQGTL
VL: B1 VL
B4: Y0241-7 Fab (Fab, V domains shown)
VH: EVQLVESGGGLVQPGGSLRLSCAASGYDWTNYGINWVRQAPGKGLEWVGWINTYTGEPTYAADFKRRFTFSLDTSKSTAYLQMNSLRAEDTAVYYCAKYPHYYGSSHWYFDVWGQGTL
VL: B1 VL
notes: Clone from library YC-86, made on the Y0192 template; The text names point mutations only at T28 and F29; The printed stretch ends in GIN, so residue 34 may also differ from the parent; this change is not applied here
B5: Y0242-1 Fab (Fab, V domains shown)
VH: B4 VH with D28T, W29F, I34M, Y54W
VL: B1 VL
notes: Clone from library YC-90, made on the Y0192 template; also called point mutant Y54W
B6: Y0239-12 Fab (Fab, V domains shown)
VH: B1 VH with V104A, N105H, R107K
VL: B1 VL
B7: Y0239-2 Fab (Fab, V domains shown)
VH: B1 VH with V104K, E106D, R107K, K108S
VL: B1 VL
B8: Y0261-6 Fab (Fab, V domains shown)
VH: B1 VH with V104L, N105K, E106D, R107K
VL: B1 VL
B9: Y0241-6 Fab (Fab, V domains shown)
VH: B4 VH with W29Y
VL: B1 VL
notes: as for B4
B10: Y0240-1 Fab (Fab, V domains shown)
VH: B1 VH with V104L, N105T, E106D, R107H
VL: B1 VL
B11: Y0313-2 Fab (Fab, V domains shown)
VH: B1 VH with T28D, N31H
VL: B1 VL
notes: Combines the CDR H3 insertion of Y0239-19 (VNERK) with T28D/N31H; also called CDR combination variant Y0313-2; Insert-Fab Y0313-2

In one assay the target is T1, VEGF(8-109). The assay can be described thus: SPR (BIACORE-2000), Fab injected over immobilised VEGF(8-109), 25 C. How it is done:
(§1) BIACORE™ Analysis: The VEGF-binding affinities of Fab fragments were calculated from association and dissociation rate constants measured using a BIACORE™-2000 surface plasmon resonance system (BIACORE™, Inc., Piscataway, N.J.). A biosensor chip was activated for covalent coupling of VEGF using N-ethyl-N′-(3-dimethylaminopropyl)-carbodiimide hydrochloride (EDC) and N-hydroxysuccinimide (NHS) according to the supplier's (BIACORE™, Inc., Piscataway, N.J.) instructions. VEGF(8-109) was buffered exchanged into 20 mM sodium acetate, pH 4.8 and diluted to approximately 50 μg/mL. Aliquots of VEGF were injected at a flow rate of 2 μL/min to achieve approximately 700-1400 response units (RU) of coupled protein. A solution of 1 M ethanolamine was injected as a blocking agent.
(§2) For kinetics measurements, two-fold serial dilutions of Fab were injected in PBS/TWEEN buffer (0.05% TWEEN 20™ in phosphate buffered saline) at 25° C. at a flow rate of 10 μL/min. Equilibrium dissociation constants, Kd's from SPR measurements were calculated as koff/kon (Table 17).
Background: Surface plasmon resonance follows binding to a sensor surface in real time, without labels.
A word on the koff: it is the rate constant with which the complex falls apart. Low readings indicate slow dissociation, high ones fast dissociation. In general, kon refers to the rate constant with which the complex forms. Low readings indicate slower complex formation, high ones faster complex formation. With B1, the koff was ≤ 1e-05 s⁻¹ and the on-rate (kon) was 36000 M⁻¹ s⁻¹.

As for B2, the koff stood at 1.9e-05 s⁻¹ and the kon came to 39700 M⁻¹ s⁻¹.

As for B3, the dissociation rate constant (koff) was 1.8e-05 s⁻¹ and the kon stood at 38000 M⁻¹ s⁻¹.

B4 yielded a koff of 0.000128 s⁻¹ and a kon of 46000 M⁻¹ s⁻¹.

In turn, B5 came in with a koff of 8.6e-05 s⁻¹ and a kon of 47000 M⁻¹ s⁻¹.

In turn, B6 came in with a koff of 3.4e-05 s⁻¹ and a kon of 57000 M⁻¹ s⁻¹.

The molecule B7 displayed an off-rate (koff) of 0.000164 s⁻¹ and a kon of 36000 M⁻¹ s⁻¹.

Regarding B8, the koff was found to be 2.5e-05 s⁻¹ and the kon amounted to 44000 M⁻¹ s⁻¹.

For B9, the koff worked out at 0.000129 s⁻¹ and the kon is 47000 M⁻¹ s⁻¹.

As for B10, the koff was 1.3e-05 s⁻¹ and the kon amounted to 25000 M⁻¹ s⁻¹.

For B11, the koff came to 1.1e-05 s⁻¹ and the kon was 31100 M⁻¹ s⁻¹.

The target of the next assay is T2, VEGF (recombinant; version 1-165) (UniProt P15692 27-191). As to the kind of experiment: cell-based or functional assay.
T2 sequence (P15692 other isoform, or with tags, fused parts or gaps limits assumed): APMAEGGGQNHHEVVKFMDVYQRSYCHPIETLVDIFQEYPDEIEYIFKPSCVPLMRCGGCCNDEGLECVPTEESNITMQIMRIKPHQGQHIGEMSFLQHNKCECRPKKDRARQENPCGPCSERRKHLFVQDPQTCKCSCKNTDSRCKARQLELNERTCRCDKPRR
Take B11: the “IC50 (read off the curve); VEGF-induced HuVEC growth, alamar blue” value was ~3 ng/mL.

A further assay concerns the target T1, VEGF(8-109). As to the kind of experiment: SPR (BIACORE-2000); reference (wt) is Y0192. How it is done: as §1, §2
In the case of B1, the “Kd(wt)/Kd(mut)” value was found to be 9.7 ratio.

Consider B2, for which the “Kd(wt)/Kd(mut)” value came to 6 ratio.

With B3, the “Kd(wt)/Kd(mut)” value amounted to 5.8 ratio.

For the molecule B4, the “Kd(wt)/Kd(mut)” value was 1 ratio.

B5: the “Kd(wt)/Kd(mut)” value came to 1.6 ratio.

On to B6, for which the “Kd(wt)/Kd(mut)” value is 4.8 ratio.

On to B7, for which the “Kd(wt)/Kd(mut)” value is 0.6 ratio.

Take B8: the “Kd(wt)/Kd(mut)” value was 5 ratio.

In the case of B9, the “Kd(wt)/Kd(mut)” value was determined as 1.1 ratio.

Turning to B10, the “Kd(wt)/Kd(mut)” value is 5.8 ratio.

As for B11, the “Kd(wt)/Kd(mut)” value was found to be 8 ratio.

The next assay concerns the target T1, VEGF(8-109). The assay can be described thus: SPR (BIACORE-2000), Kd calculated as koff/kon. The protocol: as §1, §2
The term Kd denotes the concentration at which binding is half-saturated. For B1, the Kd was ≤ 0.3 nM.

Regarding B2, the Kd was 0.5 nM.

On to B3, for which the Kd was 0.5 nM.

In the case of B4, the Kd is 3 nM.

Regarding B5, the Kd was 1.8 nM.

Take B6: the equilibrium dissociation constant (Kd) was 0.6 nM.

On to B7, for which the Kd was 4.6 nM.

On to B8, for which the Kd was 0.6 nM.

As for B9, the Kd is 2.7 nM.

On to B10, for which the Kd is 0.5 nM.

For B11, the Kd was 0.36 nM.

In a further assay the target is T2, VEGF (recombinant; version 1-165). The assay can be described thus: cell-based or functional assay. This is another data set of the same source.
As to B11, the “inhibition of VEGF-induced growth of HuVECs (alamar blue assay)” value is ~100 fold.
